Among the data in paper PMC5121336 are Kd values, retold here.

This experiment concerns the target human LDL (low-density lipoprotein) (human). Nature of the experiment: SPR; LDL amine-coupled to a CM5 chip (Biacore T100); LDLR^ecto (5-388 nM) or ALK1^ecto (0.19-15.3 uM) as analytes, single cycle kinetics; 25 °C; 25 mM HEPES pH 7.4, 150 mM NaCl, 0.1 mM CaCl2; 1:1 binding model; apparent.

ALK1^ecto-Fc, sequence (P37023 22-118): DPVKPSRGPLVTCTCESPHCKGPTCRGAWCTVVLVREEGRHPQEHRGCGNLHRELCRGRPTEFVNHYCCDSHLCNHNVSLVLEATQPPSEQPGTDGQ

In the case of “ALK1^ecto-Fc (from UniProt P37023 22-118) (Fc fusion)”, the Kd is 200 nM.
With “LDLR^ecto-(His)6 (from UniProt P01130 22-788) (domain or fragment)”, the Kd came to 7 nM.
